# From patent US5312736
# Target: factor Xa
# Ser-(Thr88-Thr161)-EPI, sequence (chain): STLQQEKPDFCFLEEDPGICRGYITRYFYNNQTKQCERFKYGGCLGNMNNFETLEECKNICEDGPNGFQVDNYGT
# native extrinsic pathway inhibitor (EPI), entire EPI protein expressed from pCMVEPIhGH, sequence (chain): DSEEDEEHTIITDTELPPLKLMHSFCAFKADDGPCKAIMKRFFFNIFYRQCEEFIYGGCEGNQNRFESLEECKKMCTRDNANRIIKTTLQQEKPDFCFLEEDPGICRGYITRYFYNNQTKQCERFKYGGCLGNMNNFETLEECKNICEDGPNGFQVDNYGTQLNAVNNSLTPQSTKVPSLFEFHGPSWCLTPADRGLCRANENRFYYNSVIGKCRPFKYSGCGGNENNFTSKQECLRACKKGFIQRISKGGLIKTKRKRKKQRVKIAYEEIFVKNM
# Ser-(Glu15-Thr161)-EPI, sequence (chain): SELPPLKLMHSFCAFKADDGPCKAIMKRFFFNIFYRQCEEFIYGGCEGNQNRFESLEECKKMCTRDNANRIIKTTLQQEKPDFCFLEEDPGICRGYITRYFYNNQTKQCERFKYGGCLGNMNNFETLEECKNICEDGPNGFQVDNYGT
row,Substance,"anti-Xa activity [U/ml], chromogenic assay (FXa, substrate S2222) [U/ml]"
1,Ser-(Glu15-Thr161)-EPI,5.6
2,Ser-(Thr88-Thr161)-EPI,0.15
3,"native extrinsic pathway inhibitor (EPI), entire EPI protein expressed from pCMVEPIhGH",7.6
